According to patent US20250011418A1 (ZIELBIO, published 2025):
Where two headings read alike, the source gives them in different places.

T1: Reb-His (Reb, a sub-fragment of Sec8, tagged with a polyhistidine (His) tag)
T1 construct: also called Reb-His peptide
T1 chain: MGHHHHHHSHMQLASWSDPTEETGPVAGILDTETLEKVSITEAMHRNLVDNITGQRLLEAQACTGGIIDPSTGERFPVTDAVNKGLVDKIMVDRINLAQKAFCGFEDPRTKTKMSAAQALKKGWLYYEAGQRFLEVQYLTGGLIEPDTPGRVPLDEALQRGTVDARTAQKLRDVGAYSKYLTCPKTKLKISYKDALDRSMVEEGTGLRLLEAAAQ

T2: Sec8-His (section 8 (Sec8), an antigenic region of CSP-1, tagged with a polyhistidine (His) tag)
T2 construct: also called Sec8-His antigen
T2 chain: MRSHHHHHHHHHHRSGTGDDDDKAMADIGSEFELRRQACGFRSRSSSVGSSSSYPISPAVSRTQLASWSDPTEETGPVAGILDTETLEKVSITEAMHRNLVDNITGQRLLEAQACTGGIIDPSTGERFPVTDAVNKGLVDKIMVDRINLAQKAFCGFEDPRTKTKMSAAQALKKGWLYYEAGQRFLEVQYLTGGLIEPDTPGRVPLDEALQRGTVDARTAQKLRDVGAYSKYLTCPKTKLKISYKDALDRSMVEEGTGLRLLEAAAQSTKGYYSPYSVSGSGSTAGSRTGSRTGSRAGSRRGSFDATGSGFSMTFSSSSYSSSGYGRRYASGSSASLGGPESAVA

B1: murine anti-CSP-1 antibody 1D7 (hybridoma clone) (antibody, V domains shown)
VH: EVQLVESGGDLVKPGGSLKLSCAASGFTFSRYGMSWVRQTPDKRLEWVATISIGGTYTYYPDSMKGRFTISRDNAKNTLYLQMSSLKSEDTAMYYCARRGYGNYSYYGMDYWGQGTSVTVSS
VL: DIVMTQAAFSNPVTLGTSASISCRSSKSLLHSNGITYLYWYLQKPGQSPQLLIYQMSNLASGVPDRFSSSGSGTDFTLRISRVEAEDVGVYYCAQNLELPLTFGAGTKLELK
notes: Murine antibody
B2: humanized anti-CSP-1 antibody, Antibody 51 (Ab51) (antibody, V domains shown)
VH: EVQLVESGGGLVQPGGSLRLSCAASGFTFSRYGMSWVRQAPGKRLEWVATISIGGTYTYYPDSMKGRFTISRDNSKNTLYLQMNSLRAEDTAMYYCARRGYGQYSYYGLDYWGQGTLVTVSS
VL: DIVMTQSALSNPVTLGQSASISCRSSKSLLHSQGITYLYWYLQKPGQSPQLLIYQMSNRASGVPDRFSSSGSGTDFTLKISRVEAEDVGVYYCAQNLELPLTFGQGTKLEIK
notes: also called Antibody Number 51; huZB131

Tests used:
[1] = molecular target: T1, Reb-His (Reb, a sub-fragment of Sec8, …); assay: ELISA on REB-HIS, absorbance 650 nm against concentration in nM on a log axis
[2] = molecular target: T1, Reb-His (Reb, a sub-fragment of Sec8, …); assay: ELISA on REB-HIS, absorbance 650 nm; no unit stands beside the number, the concentration axis is in nM
[3] = molecular target: T2, Sec8-His (section 8 (Sec8), an …); assay: ELISA on Sec8-His
Experimental: (§1) The binding of humanized anti-CSP-1 antibody (Ab51) to an antigenic region of CSP-1 called section 8 (Sec8) was measured using ELISA.

[4] = molecular target: T2, Sec8-His (section 8 (Sec8), an …); assay: ELISA, absorbance 650 nm against concentration in nM on a log axis
Experimental: as §1

[5] = molecular target: T1, Reb-His (Reb, a sub-fragment of Sec8, …); assay: ELISA on REB-HIS, absorbance 650 nm; no unit stands beside the number, the concentration axis is in nM
Experimental: Furthermore, the binding of Ab51 to a sub-fragment of Sec8, called Reb, was measured using ELISA.

Binder | EC50 (read off the curve) [1] | EC50 [2] | Kd [3] | EC50 (read off the curve) [4] | EC50 [5]
B1 | ~400 pM | 365 pM | – | – | –
B2 | – | – | 441 pM | ~400 pM | 124 pM
